Reference: the DeepSol protein solubility set

Assay: soluble on expression in E. coli; label from the status in PepcDB or PDB records

| Sequence | soluble on expression in E. coli |
| --- | --- |
| GPGSMPVEQLEEENKTLRTKVRVLEEELKHRNAECVRLRDELQLLSGVMRENDSQRQLIDTLREELEFSRKSHAEAVEALNVGEKQRRNEEHRQRMARVQLQLSTSGMDVKTGTSSQAGGAVLPVVTGGVVPTSSGVEIICKSSNISSLGFAPVQRPPDFAGSAYGQFYRGVANSADLVEEEDEVSRLMAMAKDGAMLDIKHAEVTDGEENELLERYKALKLWKPN | not soluble |
| GPGSMQEERERAERSKLLREEHDFWVEFRDRERAERLKYMTEQEIVELLQREADEATRESNRADQLHQRAMEDALRRRHITADVQRGGEDTVLARRKGEVQVDGIRLAAERETSVMVGAMTVAERTRRAGVERQQREEDLTAKCQQLMTELEEARASATRAQRYQKRAEDDLTREQENTRKEQSDAAACKETNDKLLKELAEVRQQLTASEAERKKAEAAKVQAAREVAQKEKELTCLRKRDDELAAQQASQKAAAEDEKQRAFTFQEELKTYRDALEKEQAARNRAETELAALREQAKTLEAKVAAASAPDPKQVADNMRKLKAVADDARKAQADLVKERQARESAEAAAVEARDALAKEQAVREKVEKEAQRALAASSVSVLHVQKAESDRKKLAEAEKKLEEMRRARNRDEVEKAALKREMEKVKRDLEGEASARAQFEQLASQAVSADDRVPQREVDQLRKALQISQEQCNAARRDTVACQQNAAREIALLKAWCERLQQQHRMQQQVLQSDEEFTPRTATPTPHCRTPRSVRKRIPQDLVADQRQAEEKAASDQRIRELEAHVTRLQVDLGRSKDQERRAIAGAEQARKALEASTATSMPDSGKASPGPSERGIAKEQEAKERAMVQRLNALERECAEAQKKYDDLVVAHRQSEAARCEAELQVAAQRAQIEQRQREEPQSYTSALGNYETSRLEPISATAGESTSALEERIKELERHLAEERAARQAAERRAEESQKLCAAPGTDAMSAAKRAEANVSSSGAGAKGKPQKVKSACC | not soluble |
| GPGSMRAEETAPSIPPPPTISPQKTSHRTAVVPSDPSNRPTQSLRSTKELMRQRRSTVVPRITDIFALGQLHEKGERVGSRNVCPPTWKQRMSLAGQFTTFCRTHEQPINEKSCAVILMAILDVAPSTRPQHARMLRSVLRMDRTPLDMMILGLKETAARSETKQQRQQSRAIYRRCACASSGRNSMAPPMRTTVNENETARTLRRSCFSATK | soluble |
| GPGSMRKKSVQETDEVPNERLPHILSSSDDPTEVNKALVVLLRRLRAGAGEPISLSPATLSQLLRILVGRTDDAWLEVRKKIAFVFSELLSKDNADVLADALLYGRLHTTTSSEARASRIDFGGVDENSAPDPFTSLKKMKEILGKLAEAHGTVERCVPAADVFRTFLRLPALLEVIMSPEPLFDVEDNDGSAPAHHATKKRCFNDTCIGILCRSAQAYTTALCTETWRSLSTALCTNKALSAPLLLCYFNEFVGMFLGCLEGDNFVAKLHALELIDAILEDAAFLKARPKLAESPALLCALLPLTNSRSQHIRFLTFDAIKVFIAKGNKPAPIRYILYINRETLARYVEDYSPNEATIGKVLSAEKEKILRSLLSLEPLSHEEEVLLNASA | not soluble |
| GPGSMRRANEVAREMWAPSTWERRMSLAGQFTTFCCTHERPIKEESCAAFLMAIEVAPSTRPQYARMLRSMLEMDRTPLDMMIVGLQKKIAARSETKQARLLTKEEMNQLIRSRTDWKERVVLRLAWITASCWSEIEALIPNNFTLERDGALILDWSLAPKTARADPHRASRFVRIRGLDAFDTIKLCRTLQHSEKLTNITNAQVERALVPWNATAHSIKRGALRRAAQIVEAYNFNPHVISQLAMHVDPFDLPQNTVRYLGKHTTLLTQVSSLVAFL | not soluble |
| GPGSMRSAVNLGGAPRVPSQRLPAFEGVSPRIVARQVPAHRGEYVSLVLRPTSLNAQRNSLVASCVVTDESVEVMGLPADAEVAQVNEFVCYINPSSGELEYYQHGTYNDEYDVDVYRKLLELCPKFPALF | not soluble |
| GPGSMSAIPPPHYVRLRRYNLSIFVHCDVHNDTVQAIKERYGKLTGHIFYNARLYLGQQSLDDFLTLYGCGIEAEGAELVVVHSKGAKGDGTSEHIWETVEEAMAAPQGDSLNSPEVTAEGTAKLDSMEAAATSNEVGNQQQQQAADARGGTGAELNVGFVGV | soluble |
| GPGSMSDVDDLIEELFPKKEGGRAPPEGKGGAACEPPASQSNWDDTDEANSEAETTTRNRGTSVSLEAAASTTANVGDGRGEDFDDSDESVEETVMGGRHTVPFPPTPGNMSMACNSKCFVTNVGSGELRHPSVAQLLLTGEGKYDKCSSNEQLLLRKGAFHALKADAGNGCTDKTADEDGRKGGCPFILCRKCNYTVIRLQDAEWDDEEGKMDLYLTVRNFYPDWSRLASSLPVGQMRRGEQNTVLKTCPDSAAYCCQCSWLTVKCAQEVIDTRVTDHTKFVGKELTCCFATQLPLISGEKRRPPLWVCGGHVPKH | soluble |
| GPGSMSDWETIAKESEKVLVKPDIKGCHEILMKAYEGGNHHPEILWRLGRSYYEMANESTDPAVREPYLKEGMELCKKSVEADPHNFASHKWLGILISDQKVGNKEKIANAYIIRDHFLKAVELNPNDATSLHCMGNWCFKILQIGWLERKAAALILGEPPSSTYEECLGYLLRSAEAGNTIHNSTMIGDVYAQQSMHDEARKWYQKAIDMPAYTELQKRNHDAAVAKIKKL | soluble |
| GPGSMSEPHVPTAAAQQPSAEATANAALTADSTVHTSPQAPPPPAASGASTVSANVAEVKSVTATLSDVADSTEPLLVGKVVSSEIAQARSQPCTSDLNTAQSGAGAPVDANVGEQDRCSPPAKSTSSSSSSHSGEESSDEAADFETKELMFAFGRYVGQVNPQTGLRHGHGCQYYNNGNVYTGEWRDGAPDGFGEKRYRNGDVYRGNWRQGKRSGRGVYLFVQGDTYEGMYADDKPEGQGTYATLKGDRYTGQWKAGQRHGTGRETLANGQVFVGNWRYGKKQGRGKLYLPGSEKCIYGIWNNDRFFRELTANEMGADGAEDVVDELGTQRRPSALSVALPGAKAPPPSASLADRVRMGVTALENRMESLGKALERVITGGDGDESAHVPRAAAMGAASSTAGDVAVSEECTEPPAQGFVVNSHQANDEDGEQG | soluble |
| GPGSMSGGLPRQFVLKVERHVPVNKGMGLAYPTVPGGSDVADADATPHAGAGERHQSNEAGGDMASGTLKDEAGSIHLSHEKETQTEEVPLPTCEANACDVDGTHCLSVDALDMAVRSNGAALRQMRSSSHLTAAFHTSASDDYGDSISPNPSDRQSFIGSLRVSYVELMSGESIPVYFPPSLGTSGGVEGKTMTLSEDLGCENQ | not soluble |
| GPGSMSGSTQRAEQQRRIQQLHERLELYNIADRHTDPTSNSAGGVGFASAGGLETGGGDKAPTTKPSRAAPMSGSPNLKPTSAPTSNAFFFTSSLPRRAADAGAPSSTLGLQQGNGSGSRATAAPSATEIAEVSRASPTPQQQPQVQMPPPAPAPQLARNLAQEFFGSAASPTHASPTRAASRSSAMTSGAAASPVAPERPSVTAAYPESATEATAAATAAKAGSPPLAANVFDYYEDFKSDGSEGDEYEVEEVEECMEDEEDYVGDGEDTDEHARGKASLTLEDVLRRLHRACSGSVDHAAAASPLEQAMAAASASSPLARDPSLATATPAAAAATRVTLTAAAASPIGTTYPFLQQATEVYRQRHLYKATQEHQQHHSPFNTGYAWSTDEETSVTDTSTSEPTEGLGDASESRSASVSSSASAASKGHLTAANAAAAVQNSGLLAAALQPLADTAIATPTASDRASAEKVLPSSALCFDQLETAYRRLLILQQGAKYVSELAGPECFPRPLPRQEEARALAEQRDMVVKRDTEMRAAPPAGSSLEDLRQRESAAIERTLGLLREKFDAAMKSLKPVADREAAIEGKRRTLKQRELDIAKQREARLIVEREVAAAEKRLMERSEQLRKREEDYSARLQQHDHQQKAAQEQIGEVEQLSKQVSSWLAILEERDRRLARKEKRLQRVQADLLKRTEDIIVWKRATQRIKQIPPPPSPPRIS | not soluble |
| GPGSMSRYSTGIENIPSLFDLASALTGFIADFTQVVFGNTQTSFTAAALEETDRGNYDPVARSWEGTGGLNYRVPLYPIPSERHTRERTRNIKILMDNCRRICVEDELPSTKEELQFWTAYRFMKYQMYLTPTCVIMPPLYVMWRMFHDRIPRPFRGRTIPVTLSLALAEQWADATYPGHQFLSTALRAKTPMGDAARAEWLRLQPIDIPYYIYAAYQFQHFFGNVPKEILFGGDIAGYCS | not soluble |
| GPGSMSVEASRPTRSQDPLPAAVIREFLEMHQQCNDQSLGQGESPTGTEKDGTRAAEARVVSAPLRVEVETTHGYVYEGRLVAMDEFYNVTLTEATKRRERLCDVERSLLTMHGFPAPAASPSTRREYVGSVLVRSGNLLMIRFPQGEGNATRVLHGAFKSMVMKVRRQINLERQKNRMERRRRKQLPVKPQSLVGKAGDPPKRTKAKKE | soluble |
| GPGSMTLYSIYIFNRYGDNIFYKEWNRTTAPQEGEAGLVAGFIYTLQHFSSQLSSSGEGGFYAVRTPLYKLHYNETMTGYRVALLSDKDLKTDVVQNILRKMFSDVFQRYVTKDPNYSHTQGRVITSTAFGEALDQFFHSQKIL | not soluble |
| GPGSMTNPSNSNLQALREELCTPGLDQGHLFEGWPETVDECNERQIALLTDLYMFSNMYPGGVAQYIRNGHELLARESEEVDFAALEMPPLIFEAPSLHRRTAERTALENAGTAMLCKTVFVLVAGGLGERLGYSSIKVSLPVETATNTTYLAYYLRWAQRVGGKEVPFVIMTSDDTHDRTLQLLRELQLEVPNLHVLKQGQVFCFADSAAHLALDETGKLLRKPHGHGDVHSLIYNATVKRDVVPDSGDGTATAQPLVNDWLAAGYESIVFIQDTNAGATITIPISLALSAEHSLDMNFTCIPRVPKEPIGLLCRTKKNSGDPWLVANVEYNVFAEVSRALNKDGGDEVSDPTGFSPFPGSVNTLVFKLSSYVDRLRESHGIVPEFINPKYSDETRRSFKKPARIESLMQDIALLFSEDDYRVGGTVFERFSYQPVKNSLEEAAGLVAQGNGAYCAATGEAAFYELQRRRLKAIGLPLFYSSQPEVTVAKDAFGVRLFPIIVLDTMCASSGSLDDLARVFPTPEKVHIDQHSTLIVEGRVIIESLELYGALTIRGPTDSMALPHVVRNAVVRNAGWSVHAILSLCAGRDSRLSEVDRIRGFVLKKTAMAVMDCNTKGESEAGAPSGAADPAKL | soluble |
| GPGSMTYRYDYRPPNGGVEGSTVLFEPVAREHRATFSCGGGYGRNVMPEIPRPMVLPLVDYLDSFDKRFIEDWDEITTVQMVKLATLLNYEELLNLASAKLAVYLSEKSIEGLRAFLGVENDFKAEEEAELRKEYGRMSEEK | soluble |
| GPGSMVERTADQRIRTTEWEEVQYKFGNRVGKYATNEVELLAQKIADNNLNAPLKAYDPHEEKVMDKVERGGYDTGRAEEEGGPAFDDALPDDDDEALAAFRRKRLAELQRQKEVERFGVLRHVSGADYMTEVTEASSTNWVVAVLIKPGHDNCEALLSVMRVAAQRHRDVKFLSMVSTEAIKNFPDRHLPCVLLYRDKKLENQLTEVASWKGKQNRLSLESVERVLHRYGVIRNTDYDHDDDDDDA | not soluble |
| GPGSMWKCYPLRCPAATGVFGCFKRLQDGYSAWCAAVSNQETASAKTSSRGSGAENTENLQLPIHTNPNACPRSVLVVPAGDIKDALRRQKRYDVVADVVMLDLTRGVFGGSDRSGGASEARDRLLRFLRESVRGDHMEGCSDDGEWKTQSGEGTVGQIFNGGRARWVVRVNSPEFDAARGFLDMELVGVLGDLIEGVVLPSVTANTYELVQEFIHPSHKLWAAFNTPLSVLQASAVCAQGHYRYAIVDREELAYEMQYPSVNSEKRSGSLNFSEDVEATQLKHVRSLPALHSACQVMTAAKAHGMYLFDGGFSDVSDSIGFRHDMQRCRAFGFDGRVVLRPSQIAACHEAFVPTSEEVEWAKAVQRTHCMDQYNVNGDNATSVGGDATCRRQRAALILERHAAVQWYNRNPQDDGMDMQRKGAGGNVPQGSVV | not soluble |
